PMC3643604

Target: MED25 ACID/PTOV domain (purified) (human)
Test: ITC

- Kd: 543 nM
- stoichiometry N: 1
Substance: ERM 38–68 peptide (from UniProt P41161 38-68)
